PMC3029397

Target: dual chain avidin dcAvd(I117C5→4S16C,V115H6→5)
Experiment: non-reducing SDS-PAGE; denatured in SDS-PAGE sample buffer without β-mercaptoethanol at 95°C for ten minutes, 15% gel, Coomassie staining

stoichiometry N: 2
Substance: dual chain avidin dcAvd(I117C5→4S16C,V115H6→5)
